A short description of this data set: label from the status in PepcDB records.
Regarding “MDIGFLVFGLAGLLTLVCFMPPLAGRLKLPYSVLLALVGCLLGIGVHLHGWAPPVLGDLLDTIEHFEISSETFLMVFLPVLLFETALSMNVRRLIDDIGPILMMAIVAVVVCTLVVGFAVDAVSSYGLIVCLLLGAIVATTDPAAVVGIFREVGAPKRLTTLVEGESLFNDAASIALYSVLLAALGGSGELSVGAVFNDFIFHFVGGGLAGFLMGRLACALFAWLRGFPTAEITLTLTLAYLSFFISEHYLGVSGVVATVIAGLVVGSTGRTRMSPTTFEFLSSAWGQFGFWANSLIFLFAAMLIPKLMAEADWQELLLVLVVFAATLAARAIVVFGLLPLLRVARIGAEVSNPYKSVMWWGGLRGAVSLALALAVTEQSSVPEQARQFVAVATTGFVLMTLMINGVSLRPLIRMLGLNQLSPVERTIRNQVLAAALEDLQGRTEEIAKVDHVNPEARDRIRAVFDASLTSVHDGQVGQMTLDQRVAVGLSIVARREEEMFFDILKAQIVDWRLAEGLLARAERLEDAVRAGGLAGFEAGIVADVRYSRLFRMALRTHYMFGFQGWLARELGKRFASLLTKRSVARDLMKFAREQVAPLLGEEAADRIIAAHQRRLDLIENALQALTLQYPSYSLWLQESHLGRVARELERRRYRDMLEQFLISGEVYADLMAQLKARWQHIDKHPPLDIELGSAELVKRVPLFEGLSQDSLRAICRLLKPRLALPDQHILTEGRHGQEMCIVASGAVVVHLPDHTTIELGSGEFFGELALLGEEQLVPDVTSLGYSKLLMLSARDFHALLARDEHLRERIQTVAKQRMRAIEVWKQYSQAAAAAAASTASEDSAPA”, the protein production result is “failed”.

Consider “MDIELPGFDIERELGEGAMATVYLATQRSLQRKVALKVMAAALAADPSFAERFLREGRTLARLSHPNTVTIHDIGNVGSCYYMAMEYLPNGTLKERIQQGLDPEQGLAYVRQVAAALGYAHSQGLVHRDVKPANILFRADGTAVLSDFGIAKSIEDNTQFTQVGFAVGTPSYMSPEQARGQEIDGRADLYALGVVLYEILTGKLPYNGKDSLSTALAHLTEPLPELPIEQGRYQDILRQLLAKDPAERFPTAGALIAALDRLAPSALEATQIRPLATPQGSPRASNPPPAEPAPLPPADLGGLQPVSIQLPPVTPSAGGATPPPPPPSQAAKPPSPPPPPLPPAKPRAGGSRTPLIAAAAAAVLLAIGGGAWWLLGSGDAPSAADPAPLGQTPADKPQQQTPVADAEQDGGERPLLMPGKKTLFQRVLTKPGAAISAEAGGPPRAGAVPAFSVLYVYARKQVGGSPWLRVGASSNGEGDGWLPASAVSDWKQSLVLKFTERSGRAPVMFLNSAEQVERLLGDTRAARDTLTQAVDHKGDPQVVAVEPNDRAIPQDQFYLLPIFDSKESFDADGQPAQLLEVASIDPGGSAAAPQAPGQAGQGGASGAASDTFRTGIVLVVDTSVSMQPYIDRVREVIDGLQRQIGERGDLDKVSFGLVGFRNNTDKTPGLEYVSKTLVPLQPGNDAQRFAELSSQVRATDVSSHSFNEDAFAGIMQAVDEMDWSPYAGRVVLLVTDAGALRKNDPLGRTQMNEAEVRQAALRKGVKIYALHLRTPAGKNNHGYAEQQYRSLTADANPKIADLYIPVAGGEVNAFGNTVKEIGTVFADLVHDAGNRKPQAPRFDAAPSVASKSAAIGYAMQMEFLGRRDPVRAPQVVTAWTADRDLTNPALPAFQVCVLLSKLQLNELQQSLKLIVDAAKRTQTSPKDFFQEIASASAYMSRDPAQLVKGSNLAQSGVLGEYLEGLPYRSKSLNMTQDLWLSLSVAEQQDFIDELESKIRLYETFHNDVANWVRFGDADAGDALYRVPLSTLP”, for which the protein production entry was “failed”.

As for “MIKGNNGNRGSSSSGYSADLLVCFPSRTHLALTPKPICSPSRPSDSSTNRRPHHRRQLSKLSGGGGGGHGSPVLWAKQASSKNMGGDEIAEPTSPKVTCAGQIKVRPSKCGGRGKNWQSVMEEIERIHDNRSQSKFFGLKKDVMGFLTCLRNIKFDFRCFGDFRHADVTSDDDEEEDDDDDEEEEVVEGEEEENSKTVFSKWFMVLQEEQNNKDDDKNNNKCDEKRDLEDTETEPAVPPPNALLLMRCRSAPAKSWLEERMKVKTEQEKREEQKEEKETEDQETSMKTKKKDLRSLMEEEKMELVLMRYDTEFYRLSSDIAKETWVVGGIQDPLSRSRSWKN”, the protein production result is on record as “failed”.

For the sequence “GPGSMSLKVNILGHEFSNPFMNAAGVLCTTEEDLRRMTESESGSLIGKSCTLAPRTGNPEPRYFGLPLGSINSMGLPNLGVDFYLSYAAQTHDYSRKPLFLSMSGLSVEESVEMVKKLAPITKEKGTILELNLSCPNVPGKPQVGYDFDTTRTYLQKVSEAYGLPFGVKMPPYFDIAHFDMAAAVLNDFPLVKFITCVNSIGNGLVIDPANETVVIKPKQGFGGLGGKYVLPTALANVNAFFRRCPDKLVFGCGGVYSGEEAFLHILAGASMVQVGTALHDEGPIIFARLNKELQEIMTNKGYKTLDEFRGRVKTMD”, the protein production entry is reported as “not failed”.

For “MDESAALRAFQDALRTQRPEFGQFFLARLLGLDISYPDGQCLIVFEPQDFLFNPQGSLHGGIIATVMDISMGHLLNHVQGAGLTLEMKTQYLKAVRQGTVYCRGEFLQRGRSVSFLKSTLTDAQGEPLAMATSTWKALSPARAPGVDAAAR”, the protein production result was “failed”.

For “MKSEFYQGKIKQYDATKGFGFIGGLEQDVFFHISDFPLEEGEPKRNERVKFMVVENNGKFKAVKIQRVVDQSAKAKKSRAVENNTSITSALLSNFKK”, the protein production entry is reported as “failed”.

On to “MSLTTPTMIAAVVEEANGPFVLRKLARPQPAPGQVLVQIEASGTNPLDAKIRAGEAPHAQQPLPAILGMDLAGTVVAVGPEVDSFRVGDAVFGLTGGVGGLQGTHAQFAAVDARLLASKPAALTMRQASVLPLVFITAWEGLVDRAQVQDGQTVLIQGGGGGVGHVAIQIALARGARVFATARGSDLEYVRDLGATPIDASREPEDYAAEHTAGQGFDLVYDTLGGPVLDASFSAVKRFGHVVSCLGWGTHKLAPLSFKQATYSGVFTLHTLLANEGLAHFGEMLREADALVQTGKLAPRLDPRTFSIAEIGSAYDAVLGRNDVPRQRGKIAITVEGHHHHHH”, for which the protein production entry is given as “not failed”.

Regarding “MYPKQFLKFGETSLFQETVLRCLEVSDISEVFVVTNEAQKFFVIGQIKEAGYSIPPENILIEPEGKNTLPAIFFGMKEIEKKFGDSIVGVFSSDHVLDRAAMATISSAENLASDYLVTFGVVPTFPHTGYGYIKASEACSPGYRVSEFREKPDFETAKKYIEEGCLWNSGMFLFETRLFFEEARKHAPSVYGCFEKEGDINQIYECVDNISIDYGIMEKSDKVAVVRLDHKWSDLGNFAAIYDELEKDSVGNVIHDCDPMLLNSDGNLVYSRCGKIVSLIDVKDMVVVDTSDALLICPKSSSQKVKEIVSELKGRKDERAFIGQTVYRPWGSYTLLDASPGHKIKNITVLSDHKLSLQLHYHRSEHWVVVKGMACVEVDGKQFFLGPGESTFIRAGQKHRLSNPGKLPLEIIEVQLGELVDEEDIVRFDDVYGRRLEHHHHHH”, the protein production result was “not failed”.

For the sequence “MDAKETSATDLKRPREEDDNGGAATMETENGDQKKEPACFSTVIPGWFSEMSPMWPGEAHSLKVEKVLFQGKSDYQDVIVFQSATYGKVLVLDGVIQLTERDECAYQEMITHLPLCSIPNPKKVLVIGGGDGGVLREVARHASIEQIDMCEIDKMVVDVSKQFFPDVAIGYEDPRVNLVIGDGVAFLKNAAEGSYDAVIVDSSDPIGPAKELFEKPFFQSVARALRPGGVVCTQAESLWLHMDIIEDIVSNCREIFKGSVNYAWTSVPTYPSGVIGFMLCSTEGPDVDFKHPLNPIDESSSKSNGPLKFYNAEIHSAAFCLPSFAKKVIESKAN”, the protein production result is “failed”.

For “MQDWWEADNRLADWLSMILIQRTIEKNAKQALANLGPHLDLESLIGMDMATLEEYIYPAGFYKQKSIYIKALIKWFHGHGASLDKFQTYSTEDLRKELLGIKGVGEETADAMLLYIFERNVFIADLEHHHHHH”, the protein production result was “failed”.

As to “MLSHHPSLHFLSKLSTLSLQRNQEKQALVEELEERIELLNRLETTLSKTLNCFPEELVTFLKNNDSVTSLAEFAAECNVDPLRDTQTELLIAASQKLERWWQVEKLVEEEKKRNYEAEKLLKDFEAFKKDLETVITGFKAEQSSATQASVDQEKKALEKLKKAFESYEANSSCQPVDVTHEEVVELGKKVTLLEAQVIEEQLQLDTYQMLPQDPVLARIVLDEAKEKLKEFSAERDSILRNMKFV”, the protein production entry was “failed”.

Take “MLPPGMVAAESDFYLRRLWGLPHEDLKSEPRYLATFTVGINQKANIDACVKKFSENFTIVLFHYDGRVTEWDEFEWSKTAIHISVRKQTKWWYAKRFLHPDIVARYDYIFVWDEDLGVEHFNAEEYVKMVKKHGLEISQPGLEPNQGLTWQMTKRRGDMEVHKITEERPGWCSDPHLPPCAAYVEIMAPVFSRNAWRCVWHVIQNDLVHGWGLDFALRRCVEPAHEKIGVVDSQWVVHQSFPSLGNQGEATDGKAPWQGVRDRCKKEWTMFQSRMANAEKDYFKSLQVEGSSNSTATTI”: the protein production result is given as “failed”.

“MFARTAIAPPFAAMAAGRIPNTHDSDMAEARPDSLTRSRAAKPAGEGAAFSPLYRQIKELLVQSLDRGEWKPGELIPSEIDLAARFQVSQGTVRKAVDELAAEHLLLRRQGKGTFVATHHEARVRYRFLRLAPDEEGEGGRAESRILECRRLRAPAEIARALELRAGETVVTIRRQLSMNHMPTVIDDLWLPGTHFRGLTLELLTASKAPLYGLFESEFGVSMVRADEKLRAVAASPEIAPLLGVEPGRPLLQVDRISYTYGDRPMEVRRGLYLTDHYHYRNSLN”: the protein production result is listed as “failed”.

For “MSLKHYSIQPANLEFNAEGTPVSRDFDDVYFSNDNGLEETRYVFLGGNQLEARFPEHPHPLFVVAESGFGTGLNFLTLWQAFDQFREAHPQAQLQRLHFISFEKFPLTRADLALAHQHWPELAPWAEQLQAQWPMPLPGCHRLLLDEGRVTLDLWFGDINELISQLDDSLNQKVDAWFLDGFAPAKNPDMWTQNLFNAMARLARPGGTLATFTSAGFVRRGLQEAGFTMQKRKGFGRKREMLCGVMEQTEGHHHHHH”, the protein production entry is given as “not failed”.

As to “MESFHPLSLLKPSIRGWCIRGRVVRTFLVSLVPSSKVMGLILAEEHGMTIEATVGYKMSDHYKDFINEGEWVTITNFGVVENSGSVRATTHSFKIGFFVDIVVRLTSPLPAIPHYRLASFSSIIDDEIDKSVLVDLVGAIYDVGELINTRPKQNNVDDLTLIFKISDNENRVLECLATKKEALDFDHNYRRYGGGVIVAVLGWWKIDRYFDGPKNVRVCTAGTISTVFPDPDIPESNEIHEI”, the protein production result is recorded as “failed”.

On to “MYPVDLHMHTVASTHAYSTLSDYIAQAKQKGIKLFAITDHGPDMEDAPHHWHFINMRIWPRVVDGVGILRGIEANIKNVDGEIDCSGKMFDSLDLIIAGFHEPVFAPHDKATNTQAMIATIASGNVHIISHPGNPKYEIDVKAVAEAAAKHQVALEINNSSFLHSRKGSEDNCREVAAAVRDAGGWVALGSDSHTAFTMGEFEECLKILDAVDFPPERILNVSPRRLLNFLESRGMAPIAEFADL”, for which the protein production entry is “not failed”.

Consider “MRLTIERRKASLYLRGNLPPKLPGGEWKQQRMPLGLDATPLGVKQAEAKAHQVGLELQMDRFRWQDHVELPIDASVMSGLVHLAEERYFSERDRTAKTLSTWQRVYVAHYRQIGLDKPFSLELIHRYLSSKRGFPNALQKAIVACRFLCAVANQPLDARPWQGVATRREVVPRELPTQQQIVDWFDHLKNMQLHHQPEFRAGWIWVYAAIATYGLRPHEAWYLDLDSLRKSKGKRVWLKDGKTGPRWVYPCPPQWVQRFDLCHGGPPPINVRNNQELGTRAGQWAKANGVPPLYGLRHSYAVRLIEYEFPVTVAAKMMGHSPQVHTETYHRWLGDREVQSYAEDLLR”, for which the protein production entry is given as “failed”.

Source of the values: a protein production outcome set (Wang et al. 2014).
